{"source": "patent US20250027068", "proteins": {"B1": {"name": "PRT-517 (protein)", "chain": "MITSVWTKGVTPPTDFIKGEDVFHAPYKAGQGWYDITKAFDGGDDLLCGAATAGNMLHWWFDQNKEEIEAYLKKHPEKQKIMFGDQELLDVRKVINTKDSQTNSALFNYFKDKAFPNLSARRLGVMPDLVLDMFINGYYLNVYKTQTTDVNRQEQTKDRRGGIFDAVFGRGDQTKLLTERHDLKNKTLKEISDLIKQELTEGKALGLSHTYANVRINHVINLWGADFDSNGNLEAIYVTDSDSNASIGMKKYFVGVNSAGKVAISAKEIKEDNIGAQVLGLFTLSTGQKIWNKTNLEHHHHHH"}, "B2": {"name": "PRT-498 (protein)", "chain": "MVTSVWTKGVTPPTDFRKIVDGNIAYYHAPYKAGQGWYDITKAFDGGDDLLCGAATAGNMLHWWFDQNKEYIEAYLKKHPEKQKIMFGDQELLDVRKAINTKGSQKNSELFNYFRDKAFPNLSARRLGVMPDLVLDMFINGYYLNVTKTQTTDVNRTYQEKDKRGGIFDAVFTRGDQSKLLTSRHDLKNKGLKEISDLIKQELTEGKALGLSHTYANVRINHVINLWGADFDSDGNLKAIYVTDSDSNASIGMKKYFVGVNSAGKVAISAKEIKEDNIGAQVLGLFTLSTGQDIWNQTNLEHHHHHH"}, "B3": {"name": "PRT-688 (protein)", "chain": "MQITSVWTKGVTPLTMDDFTINNEDVIHAPYVANQGWYDITKTFNGKDNLLCGAATAGNMLHWWFDQNKEEIERYLKKHPEKQKIIFNNQELFDLKEAINTKDSQTDSKLFNYFRDKAFPNLSARQLGVMPDLVLDMFINGYYLNVFKTQSTDVNRPYDTKDKRGGIFDHVFTRGDQSTLLTARHDLKNKTLKEISDIIKQELTEGKALALSHTYANVSISHVINLWGADFNAEGNLEAIYVTDSDANASIGMKKYYVGVNSHGKVAISAKKIEGENIGAQVLGLFTLSSGKDIWQKLSLEHHHHHH"}, "B4": {"name": "PRT-501 (protein)", "chain": "MVTSVWTKGVTPPADFTQGEDVFHAPYVANQGWYDITKTFNGKDDLLCGAATAGNMLHWWFDQNKEYIEAYLKKHPEKQKIMFGDQELLDVRKAINTKGSQKNSELFNYFRDKAFPNLSARRLGVMPDLVLDMFINGYYLNVTKTQTTDVNRTYQEKDKRGGIFDAVFTRGDQSKLLTSRHDLKNKGLKEISDLIKQELTEGKALGLSHTYANVRINHVINLWGADFDSDGNLKAIYVTDSDSNASIGMKKYFVGVNSAGKVAISAKEIKEDNIGAQVLGLFTLSTGQDIWNQTNLEHHHHHH"}, "B5": {"name": "PRT-511 (protein)", "chain": "MITSVWTKGVTPPAKFRKIVDGNIAYYHAPYVANQGWYDITKTFNGKDDLLCGAATAGNMLHWWFDQNKEEIEAYLKKHPEKQKIMFGDQELLDVRKVINTKDSQTNSALFNYFKDKAFPNLSARRLGVMPDLVLDMFINGYYLNVYKTQTTDVNRTYQTKDRRGGIFDAVFTRGDQSKLLTERHDLKNKTLKEISDLIKQELTEGKALGLSHTYANVRINHVINLWGADFDSNGNLEAIYVTDSDSNASIGMKKYFVGVNSAGKVAISAKEIKEDNIGAQVLGLFTLSTGQDIWNQTNLEHHHHHH"}}, "molecular_target": "pooled human IgG (human IgG1,2,3 and 4)"}
{"protein": "B1", "values": [{"measurement": "Enzyme Activity Endpoint Assay (purified): Fab′2", "result": 0, "unit": "ng/µL"}, {"measurement": "Enzyme Activity Endpoint Assay (purified): Fc", "result": 0, "unit": "ng/µL"}, {"measurement": "Enzyme Activity Endpoint Assay (purified): scIgG", "result": 22, "unit": "ng/µL"}]}
{"protein": "B2", "values": [{"measurement": "Enzyme Activity Endpoint Assay (purified): Fab′2", "result": 488, "unit": "ng/µL"}, {"measurement": "Enzyme Activity Endpoint Assay (purified): Fc", "result": 318, "unit": "ng/µL"}, {"measurement": "Enzyme Activity Endpoint Assay (purified): IgG", "result": 325, "unit": "ng/µL"}, {"measurement": "Enzyme Activity Endpoint Assay (purified): scIgG", "result": 124, "unit": "ng/µL"}]}
{"protein": "B3", "values": [{"measurement": "Enzyme Activity Endpoint Assay (purified): Fab′2", "result": 0, "unit": "ng/µL"}, {"measurement": "Enzyme Activity Endpoint Assay (purified): Fc", "result": 0, "unit": "ng/µL"}, {"measurement": "Enzyme Activity Endpoint Assay (purified): IgG", "result": 1950, "unit": "ng/µL"}, {"measurement": "Enzyme Activity Endpoint Assay (purified): scIgG", "result": 0, "unit": "ng/µL"}]}
{"protein": "B4", "values": [{"measurement": "Enzyme Activity Endpoint Assay (purified): Fab′2", "result": 0, "unit": "ng/µL"}, {"measurement": "Enzyme Activity Endpoint Assay (purified): Fc", "result": 0, "unit": "ng/µL"}, {"measurement": "Enzyme Activity Endpoint Assay (purified): IgG", "result": 1950, "unit": "ng/µL"}, {"measurement": "Enzyme Activity Endpoint Assay (purified): scIgG", "result": 0, "unit": "ng/µL"}]}
{"protein": "B5", "values": [{"measurement": "Enzyme Activity Endpoint Assay (purified): Fab′2", "result": 935, "unit": "ng/µL"}, {"measurement": "Enzyme Activity Endpoint Assay (purified): Fc", "result": 312, "unit": "ng/µL"}, {"measurement": "Enzyme Activity Endpoint Assay (purified): IgG", "result": 62, "unit": "ng/µL"}, {"measurement": "Enzyme Activity Endpoint Assay (purified): scIgG", "result": 0, "unit": "ng/µL"}]}
